The values below are quoted from earlier work in paper PMC5559722.

Read-outs that look alike come from different tables or passages of the source.

For data set [1], the target named is p97 N-domain (UniProt P55072).
Data set [2] addresses p97 N-domain (UniProt P55072). This is another data set of the same source.
Data set [3] concerns the target p97 N-domain (UniProt P55072). Briefly: ITC. (In general: In ITC the heat of successive injections is recorded.)
The target in data set [4] is RNF31 PUB (Homo sapiens) (UniProt Q96EP0).
Data set [5] deals with p97 C-terminal peptide (Homo sapiens) (UniProt P55072).
The target of data set [6] is p97 N-domain (UniProt P55072). The source holds these as a separate data set.

In general, Kd refers to the constant that tells how readily two partners part at equilibrium. With FAF1 UBX (from UniProt Q9UNN5), the equilibrium dissociation constant (Kd) in data set [1] is 1000 nM.

On to NPL4 UBXL (from UniProt Q8TAT6), for which, in data set [2], the Kd is 18000 nM.

For OTU1 UBXL (from UniProt Q5VVQ6), the Kd in data set [3] is 700 nM.

On to OTULIN (from UniProt Q96BN8), for which, in data set [4], the dissociation constant Kd was 300 nM.

In the case of RNF31 PUB (from UniProt Q96EP0), the Kd in data set [5] was 50000 nM.

p47 UBX (from UniProt Q9UNZ2): the Kd in data set [6] was 1000 nM.
